This is an account of results in US20140162960.

For series [1], the target named is T1, myc-tagged IQGAP1 WW domain expressed from lentivirus (pLEX-mycWW).
T1 chain: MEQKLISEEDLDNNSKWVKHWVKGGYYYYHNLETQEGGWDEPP

The target in series [2] is myc-tagged mutant IQGAP1 WW domain expressed from lentivirus (pLEX-mycYY).

B1: ERK1 (extracellular signal-regulated kinase 1), endogenous (protein)
chain: AAAAAQGGGGGEPRRTEGVGPGVPGEVEMVKGQPFDVGPRYTQLQYIGEGAYGMVSSAYDHVRKTRVAIKKISPFEHQTYCQRTLREIQILLRFRHENVIGIRDILRASTLEAMRDVYIVQDLMETDLYKLLKSQQLSNDHICYFLYQILRGLKYIHSANVLHRDLKPSNLLINTTCDLKICDFGLARIADPEHDHTGFLTEYVATRWYRAPEIMLNSKGYTKSIDIWSVGCILAEMLSNRPIFPGKHYLDQLNHILGILGSPSQEDLNCIINMKARNYLQSLPSKTKVAWAKLFPKSDSKALDLLDRMLTFNPNKRITVEEALAHPYLEQYYDPTDEPVAEEPFTFAMELDDLPKERLKELIFQETARFQPGVLEAP
Regarding B1, in series [1], the “pELK1 levels in IP-kinase assay (pERK immunoprecipitate, ELK-1 substrate)” value is given as “revealed diminished downstream pELK1 levels as compared to control treated cells”; the “phosphorylated ERK levels (tissue stain and immunoblot)” value is “WW domain expressing tissue also showed diminished phosphorylated ERK without an effect on total ERK levels”. In addition, the “phosphorylated ERK levels (immunoblot)” value in series [2] is “Primary normal human keratinocytes infected with this WW domain mutant had normal levels of phosphorylated ERK”.
